According to paper PMC6669086:
Read-outs that look alike come from different tables or passages of the source.

Columns and labels:
Atto532-tUI [1] = molecular target: Atto532-tUI (UniProt Q9UMX0); test: other fluorescence titration
tUI = tUI (UniProt Q9UMX0); test: other fluorescence titration
Atto532-tUI [2] = molecular target: Atto532-tUI (UniProt Q9UMX0); test: stopped-flow fluorescence kinetics
ubiquitin (Homo sapiens) [3] = molecular target: ubiquitin (Homo sapiens) (UniProt P0CG48); conditions: cited from earlier work
ubiquitin (Homo sapiens) [4] = molecular target: ubiquitin (Homo sapiens) (UniProt P0CG48); conditions: cited from earlier work; remark: listed apart in the source

Nedd8, sequence (Q15843 1-76): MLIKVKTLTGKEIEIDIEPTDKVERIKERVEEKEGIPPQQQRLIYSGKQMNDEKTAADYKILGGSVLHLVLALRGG
IsoT BUZ BUZ, sequence (P45974 173-289): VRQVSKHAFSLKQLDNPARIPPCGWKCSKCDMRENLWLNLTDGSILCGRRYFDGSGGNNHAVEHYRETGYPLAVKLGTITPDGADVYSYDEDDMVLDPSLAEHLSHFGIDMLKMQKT
Rabex5 RUZ RUZ, sequence (Q9UJ41 13-47): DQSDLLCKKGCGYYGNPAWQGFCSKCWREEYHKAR

Substance “Nedd8 (from UniProt Q15843 1-76) (natural protein)” has a fold higher affinity for Ub than Nedd8 (Atto532-tUI [1]) of 120 fold.
Work on “ubiquitin (free Ub) (from UniProt P0CG48 1-76) (natural protein)” yielded a Kd (Atto532-tUI [1]) of 0.066 nM, a Ki (tUI) of 0.194 nM and a Kd (Atto532-tUI [2]) of 0.0564 nM.
For Rabex5 RUZ RUZ (from UniProt Q9UJ41), the Kd (ubiquitin (Homo sapiens) [3]) is listed as 12 µM.
In the case of IsoT BUZ BUZ (from UniProt P45974), the Kd (ubiquitin (Homo sapiens) [4]) is given as 3000 nM.
